# Experimental data taken from paper doi:10.1101/2024.12.16.628697.
# Target: USP1/UAF1 (UniProt O94782)
# Assay: global kinetic fit
# UniProt O94782, sequence (O94782 21-785 G670A/G671A, chain 1 of 2): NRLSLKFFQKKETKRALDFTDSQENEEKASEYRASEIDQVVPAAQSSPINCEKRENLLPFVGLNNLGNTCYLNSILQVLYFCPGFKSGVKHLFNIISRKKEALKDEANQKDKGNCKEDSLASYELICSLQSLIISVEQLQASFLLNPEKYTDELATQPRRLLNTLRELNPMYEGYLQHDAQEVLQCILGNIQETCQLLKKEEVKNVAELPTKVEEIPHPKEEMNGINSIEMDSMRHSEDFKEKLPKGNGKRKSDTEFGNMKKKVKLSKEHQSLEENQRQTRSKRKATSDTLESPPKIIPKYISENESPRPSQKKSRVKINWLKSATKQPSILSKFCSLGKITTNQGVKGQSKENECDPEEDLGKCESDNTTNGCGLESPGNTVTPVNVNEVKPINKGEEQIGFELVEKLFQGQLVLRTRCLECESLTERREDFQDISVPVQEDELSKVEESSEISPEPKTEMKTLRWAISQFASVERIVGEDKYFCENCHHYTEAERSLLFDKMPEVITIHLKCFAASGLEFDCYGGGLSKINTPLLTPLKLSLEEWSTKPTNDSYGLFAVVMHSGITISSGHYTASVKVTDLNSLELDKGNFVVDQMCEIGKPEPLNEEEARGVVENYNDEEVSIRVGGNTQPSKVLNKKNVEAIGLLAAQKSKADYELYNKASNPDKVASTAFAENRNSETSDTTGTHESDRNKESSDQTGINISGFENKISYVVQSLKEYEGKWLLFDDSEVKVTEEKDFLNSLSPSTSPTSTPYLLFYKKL
# UniProt O94782, sequence (Q8TAF3 9-677, chain 2 of 2, further chain): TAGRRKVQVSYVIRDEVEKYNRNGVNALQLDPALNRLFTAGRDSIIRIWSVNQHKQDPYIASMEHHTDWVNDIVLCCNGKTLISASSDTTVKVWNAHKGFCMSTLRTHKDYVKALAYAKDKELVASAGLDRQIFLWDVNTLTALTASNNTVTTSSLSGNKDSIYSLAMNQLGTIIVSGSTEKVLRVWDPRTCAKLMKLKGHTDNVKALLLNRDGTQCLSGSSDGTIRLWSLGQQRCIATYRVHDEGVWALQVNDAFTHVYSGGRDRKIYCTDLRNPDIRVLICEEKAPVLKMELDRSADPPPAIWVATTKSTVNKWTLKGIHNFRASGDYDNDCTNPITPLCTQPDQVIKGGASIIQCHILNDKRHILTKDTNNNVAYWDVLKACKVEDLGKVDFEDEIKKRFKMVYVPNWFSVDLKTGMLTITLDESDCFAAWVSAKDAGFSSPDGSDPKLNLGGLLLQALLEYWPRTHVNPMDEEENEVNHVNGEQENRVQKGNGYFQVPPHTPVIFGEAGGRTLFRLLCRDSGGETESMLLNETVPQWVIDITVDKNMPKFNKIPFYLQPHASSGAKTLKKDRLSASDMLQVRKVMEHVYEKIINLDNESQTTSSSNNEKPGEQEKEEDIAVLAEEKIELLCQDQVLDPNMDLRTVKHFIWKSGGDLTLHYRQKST
substance,measurement,value
K63-linked diubiquitinated PCNA (K63-PCNA-Ub2) (from UniProt P12004 1-261; P0CG48 1-76; P0CG48 1-76) (complex),koff,1240 s⁻¹
